According to patent publication US20200024330A1:

What was measured:
Assay in all cases: cell-based or functional assay
[1] = target: HIV-1 Env of isolate MGRM-AG-012 (HIV-1)
[2] = target: HIV-1 Env of isolate MGRM-AG-001 (HIV-1)
[3] = target: HIV-1 Env of isolate MGRM-AG-003 (HIV-1)
[4] = target: HIV-1 Env of isolate MGRM-AG-008 (HIV-1)
[5] = target: HIV-1 Env of isolate MGRM-AG-011 (HIV-1)
[6] = target: aMLV envelope (negative control pseudovirus)
[7] = target: HIV-1 Env of isolate MGRM-AG-005 (HIV-1)
[8] = target: HIV-1 Env of isolate MGRM-AG-002 (HIV-1)
[9] = target: HIV-1 Env of isolate MGRM-AG-009 (HIV-1)
[10] = target: HIV-1 Env of isolate MGRM-AG-013 (HIV-1)
[11] = target: HIV-1 Env of isolate MGRM-AG-006 (HIV-1)
[12] = target: HIV-1 Env of isolate MGRM-AE-007 (HIV-1)
[13] = target: HIV-1 Env of isolate MGRM-AE-008 (HIV-1)
[14] = target: HIV-1 Env of isolate MGRM-AE-005 (HIV-1)
[15] = target: HIV-1 Env of isolate MGRM-AE-006 (HIV-1)
[16] = target: HIV-1 Env of isolate MGRM-AE-004 (HIV-1)
[17] = target: HIV-1 Env of isolate MGRM-Chronic-B-018 (HIV-1)
[18] = target: HIV-1 Env of isolate MGRM-Chronic-B-011 (HIV-1)
[19] = target: HIV-1 Env of isolate MGRM-Chronic-B-017 (HIV-1)
[20] = target: HIV-1 Env of isolate JRFL (HIV-1)
[21] = target: HIV-1 Env of isolate MGRM-Chronic-B-024 (HIV-1)
[22] = target: HIV-1 Env of isolate MGRM-Chronic-B-020 (HIV-1)
[23] = target: HIV-1 Env of isolate MGRM-Chronic-B-023 (HIV-1)
[24] = target: HIV-1 Env of isolate MGRM-Chronic-B-012 (HIV-1)
[25] = target: HIV-1 Env of isolate MGRM-Chronic-B-010 (HIV-1)

Substance	IC50 [1]	IC50 [2]	IC50 [3]	IC50 [4]	IC50 [5]	neutralization IC50 [6]	IC50 [7]	IC50 [8]	IC50 [9]	IC50 [10]	IC50 [11]	IC50 [12]	IC50 [13]	other results
PGT-142 (4995_E20) (antibody)	> 50 µg/mL	12.4 µg/mL	> 50 µg/mL	12.1 µg/mL	0.081 µg/mL	> 50 µg/mL	0.383 µg/mL	0.044 µg/mL	> 50 µg/mL	21.7 µg/mL	> 50 µg/mL	6.7 µg/mL	0.08 µg/mL	–
PGT-143 (4980_N08) (antibody)	> 50 µg/mL	18.9 µg/mL	> 50 µg/mL	34 µg/mL	0.156 µg/mL	> 50 µg/mL	1.11 µg/mL	0.076 µg/mL	> 50 µg/mL	> 50 µg/mL	> 50 µg/mL	13.6 µg/mL	0.135 µg/mL	–
PGT-144 (4970_K22) (antibody)	> 50 µg/mL	> 50 µg/mL	> 50 µg/mL	> 50 µg/mL	44.6 µg/mL	> 50 µg/mL	> 50 µg/mL	7.78 µg/mL	> 50 µg/mL	> 40 µg/mL	> 50 µg/mL	> 50 µg/mL	3.55 µg/mL	–
PGV04 (antibody)	–	–	–	–	–	> 50 µg/mL	–	–	–	–	–	–	–	IC50 (µg/mL), pseudovirus neutralization [1]: 0.04 µg/mL; IC50 (µg/mL), pseudovirus neutralization [2]: 0.218 µg/mL; IC50 (µg/mL), pseudovirus neutralization [14]: 0.051 µg/mL; IC50 (µg/mL), pseudovirus neutralization [3]: 0.058 µg/mL; IC50 (µg/mL), pseudovirus neutralization [4]: 2.48 µg/mL; IC50 (µg/mL), pseudovirus neutralization [15]: > 50 µg/mL; IC50 (µg/mL), pseudovirus neutralization [16]: 0.183 µg/mL; IC50 (µg/mL), pseudovirus neutralization [5]: 0.071 µg/mL; IC50 (µg/mL), pseudovirus neutralization [7]: 0.027 µg/mL; IC50 (µg/mL), pseudovirus neutralization [8]: 0.879 µg/mL; IC50 (µg/mL), pseudovirus neutralization [9]: 0.148 µg/mL; IC50 (µg/mL), pseudovirus neutralization [10]: 0.03 µg/mL; IC50 (µg/mL), pseudovirus neutralization [11]: 1.23 µg/mL; IC50 (µg/mL), pseudovirus neutralization [12]: 5.75 µg/mL; IC50 (µg/mL), pseudovirus neutralization [13]: 1.51 µg/mL
VRC01 (antibody)	0.031 µg/mL	0.228 µg/mL	0.043 µg/mL	0.124 µg/mL	0.084 µg/mL	> 50 µg/mL	0.091 µg/mL	0.95 µg/mL	> 50 µg/mL	0.197 µg/mL	0.344 µg/mL	0.835 µg/mL	1.72 µg/mL	neutralization IC50 [17]: 0.328 µg/mL; neutralization IC50 [18]: 0.587 µg/mL; neutralization IC50 [19]: 0.141 µg/mL; IC50 [20]: 0.034 µg/mL; neutralization IC50 [21]: 0.377 µg/mL; neutralization IC50 [22]: 0.424 µg/mL; neutralization IC50 [23]: 0.275 µg/mL; neutralization IC50 [24]: 1.03 µg/mL; neutralization IC50 [25]: 0.156 µg/mL
